Experiment [1] concerns the target T1, human Factor IXa (human, UniProt P00740 47-191; P00740 227-461). The experiment is described as follows: cell-based or functional assay.
In experiment [2] the target is T1, human Factor IXa. Kind of experiment: BLI (ForteBio Octet 384), biotinylated peptide on streptavidin probes, soluble hFIXa 0-2000 nM, steady state, 1:1 model. The method, then: (§1) Briefly, a layer of molecules attached to the tip of an optical fiber creates an interference pattern upon incident white light. The combination of the optical fiber and biocompatible surface creates the physical conditions needed for BLI, allowing the detection of changes in mass accumulation on the tip of the probe. This is measured by alterations in the spectral shift (nm). These changes are recorded as a binding profile, a continuous, real-time monitoring of the association and dissociation of interacting molecules.
(§2) Control SA probes were loaded with 4M guanidinium chloride in the absence of biotinylated peptide for reference subtraction. After loading, probes were incubated in HBS-P for 300 sec to establish a new baseline. […] This is described as the dissociation phase. The equilibrium KD was derived from the non-linear regression analysis of the subtracted data (Reaction probe minus Reference probe) using a 1:1 binding model with ForteBio software (Version 7.0).
(In general: Biolayer interferometry detects binding as a change in optical thickness at a sensor tip.)

Another experiment has as its target T2, human Factor VIIa (human, UniProt P08709 61-466).
T2 construct: Bought protein; also called hFVIIa; FVIIa
T2 sequence (looked up): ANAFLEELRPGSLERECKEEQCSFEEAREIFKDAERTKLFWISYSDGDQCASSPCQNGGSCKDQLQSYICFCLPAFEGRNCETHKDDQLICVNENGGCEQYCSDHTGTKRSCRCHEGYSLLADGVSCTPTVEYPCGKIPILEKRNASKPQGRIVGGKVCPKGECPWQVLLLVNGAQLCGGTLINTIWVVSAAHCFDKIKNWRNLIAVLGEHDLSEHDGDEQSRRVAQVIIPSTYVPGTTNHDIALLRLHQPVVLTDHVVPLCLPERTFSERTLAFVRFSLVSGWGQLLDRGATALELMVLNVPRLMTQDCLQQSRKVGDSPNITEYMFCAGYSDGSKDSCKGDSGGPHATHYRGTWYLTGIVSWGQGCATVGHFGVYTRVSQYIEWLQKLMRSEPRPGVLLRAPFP
Kind of experiment: BLI (ForteBio Octet 384), peptide on streptavidin probes, soluble hFVIIa. The method, then:
as §1, §2

Experiment [3] concerns the target T1, human Factor IXa. The experiment is described as follows: cell-based or functional assay. This is another data set of the same source.
Experiment [4] concerns the target T1, human Factor IXa. Kind of experiment: cell-based or functional assay. This is another data set of the same source.

Results on ten molecules are retold here after patent publication US20140303084A1 (Biogen, published 2014).

Square brackets hold non-standard residues; d marks the D form. Primed or numbered codes have the meaning given here. Side chains are listed from the residue outwards. Ends that are not written are not given here. * marks the point of attachment. Biotin = O=C1N[C@H]2[C@H](CS[C@H]2CCCCC(=O)*)N1; NMeL = CN[C@@H](CC(C)C)C(=O)O; PEG2′ = PEG2 spacer unit

As to LLHAQKLSCLASYCWVFDAEWD, in the experiment with human Factor IXa [1], the “EC50 [µM], FXa generation assay” value is below 0.5 µM.

B1: compound 19 (peptide)
peptide: RRAPGKLTCLASYCWLFK([PEG2′-Biotin])TGIA-NH2
modifications: not fully specified (bridges); printed as RRAPGKLTCLASYCWLFK(PEG2-Biotin)TGIA; cysteine pairing not given here
notes: also called compound 4 biotinylated at K18
The Kd is the constant that tells how readily two partners part at equilibrium. As for B1, the “EC50 [µM], FXa generation assay with hFIXa” value (“EC50 [µM] … with hFIXa” for short) with human Factor IXa [1] was below 0.5 µM. For the same molecule, the equilibrium dissociation constant (Kd) with human Factor IXa [2] was found to be 120 nM. Consider RRAPGKLQCLASYCWLFWTGIA-NH2 (cysteine pairing not given here) [compound 25], for which the Kd in the experiment with human Factor VIIa was found to be 250 nM. The “EC50 [µM] … with hFIXa” value in the experiment with human Factor IXa [1] is below 0.5 µM. In the case of RRAPGKLQCLASYCWLFWTAIA, the “EC50 [µM], FXa generation assay” value with human Factor IXa [1] was below 0.5 µM. Take [dK][NMeL]TCLASYCWLF-NH2 (cysteine pairing not given here) [compound 2]: the “EC50 (µM), FXa generation assay, without phospholipids” value in the experiment with human Factor IXa [3] came out at 0.2 µM. For the same molecule, in the experiment with human Factor IXa [1], the “EC50 [µM], FXa generation assay” value was below 0.5 µM and the “EC50 [µM] … with hFIXa” value is below 0.5 µM. QDGVEKLTCLASYCWRFGDHGA: the “EC50 [µM], FXa generation assay” value with human Factor IXa [1] was above 50 µM. Turning to KLTCLASYCWLF-NH2 (not fully specified (bridges); cysteine pairing not given here) [compound 1], the “EC50, FXa generation assay with human FIXa” value with human Factor IXa [4] was 300 nM. In addition, in the experiment with human Factor IXa [3], the “EC50 (µM), FXa generation assay, without phospholipids” value was 0.4 µM. Besides, the “EC50 [µM] … with hFIXa” value in the experiment with human Factor IXa [1] was below 0.5 µM. On to TLLYQNRTCLASYCWLFDKRSV, for which, in the experiment with human Factor IXa [1], the “EC50 [µM], FXa generation assay” value is above 50 µM. On to DAGPNKLRCLASYCQLFGGGHA, for which the “EC50 [µM], FXa generation assay” value with human Factor IXa [1] is above 50 µM. Take SGGSGKLTCLASYCWPFGSQVR: in the experiment with human Factor IXa [1], the “EC50 [µM], FXa generation assay” value is above 50 µM.
